1 protein from article PMC6203815 can be followed below.

This series is described as follows: Ni-NTA recovery from HEK293, Coomassie SDS-PAGE. Conditions: glycan lost; control: wild-type Pfs48/45 6C.

B1: Pfs48/45 6C: S305A (protein)
parent chain: MMLYISAKKAQVAFILYIVLVLRIISGNNDFCKPSSLNSEISGFIGYKCNFSNEGVHNLKPDMRERRSIFCTIHSYFIYDKIRLIIPKKSSSPEFKILPEKCFQKVYTDYENRVETDISELGLIEYEIEENDTNPNYNERTITISPFSPKDIEFFCFCDNTEKVISSIEGRSAMVHVRVLKYPHNILFTNLTNDLFTYLPKTYNESNFVSNVLEVELNDGELFVLACELINKKCFQEGKEKALYKSNKIIYHKNLTIFKAPFYVTSKDVNTECTCKFKNNNYKIVLKPKYEKKVIHGCNFSSNVSSKHTFTDSLDISLVDDSAHISCNVHLSEPKYNHLVGLNCPGDIIPDCFFQVYQPESEELEPSNIVYLDSQINIGDIEYYEDAEGDDKIKLFGIVGSIPKTTSFTCICKKDKKSAYMTVTIDSAYYGFLAKTFIFLIVAILLYI
With B1, the expression_or_secretion entry is reported as “decreases”.
